How the values were obtained:
[1] = biological target: T1, CRBN/DDB1 protein complex (no IMiD) (UniProt Q96SW2 1-442; Q16531 1-1140, limits assumed); assay: size exclusion chromatography (Superose 6) with SDS-PAGE of fractions, no iberdomide
T1 construct: As used in the SEC sample without iberdomide; also called CRBN/DDB1 complex
Description: Purified CRBN/DDB1 protein complex and iTAG2 protein were mixed together and subjected to SEC in the presence or absence of iberdomide, shown in FIG. 14.
100 μM iberdomide was included in one of the samples and both were incubated on ice for 1 hour, then centrifuged at 21000 g for 10 minutes prior to injection to remove potential aggregates. The Superose 6 column was pre-equilibrated in the same buffer (20 mM HEPES pH 7.0, 200 mM NaCl and 1 mM TCEP) at a flow rate of 0.25 mL/min before injection of 50 μL of each sample.

[2] = biological target: T2, complex formed between CRBN/DDB1 and iberdomide (UniProt Q96SW2 1-442; Q16531 2-1140, limits assumed); assay: TR-FRET displacement of Sulfo-Cy5 Aiolos peptide probe from CRBN/DDB1 with 10 uM iberdomide. The figure is told overall for the three IMiDs.
T2 construct: mature; also called CRBN/DDB1 in the presence of iberdomide; CRBN/DDB1 with CC-220
Description: (§1) All TR-FRET assays were ran in Black 384-well ProxiPlate Plus (Perkin-Elmer, USA), in a buffer containing 20 mM HEPES pH 8.0, 150 mM NaCl, 0.5 mM TCEP, 0.05% Tween 20 and 0.05% BSA, with a final assay volume of 10 μL. An Echo E550 (Beckman Coulter, USA) acoustic liquid dispenser was used to create final concentration ranges from 82 μM down to 2.05 nM for iTAG1 and 27 μM down to 0.68 nM for iTAG2. […] Finally, IMiDs were added to a final concentration of 10 μM with the Echo. Plates were sealed, centrifuged at 200 g for 1 min and stored overnight at 4° C. The TR-FRET signals were read using a PHERAstar FSX plate reader (BMG Labtech, Germany).

[3] = biological target: T3, complex formed between CRBN/DDB1 and pomalidomide (UniProt Q96SW2 1-442; Q16531 2-1140, limits assumed); assay: TR-FRET displacement of Sulfo-Cy5 Aiolos peptide probe from CRBN/DDB1 with 10 uM pomalidomide. The figure is told overall for the three IMiDs.
T3 construct: mature; Same proteins as m3 with 10 uM pomalidomide. 'mature' stands for the printed 'WT full length'; also called CRBN/DDB1 in the presence of pomalidomide
Description: as §1

[4] = biological target: T4, complex formed between CRBN/DDB1 and lenalidomide (UniProt Q96SW2 1-442; Q16531 2-1140, limits assumed); assay: TR-FRET displacement of Sulfo-Cy5 Aiolos peptide probe from CRBN/DDB1 with 10 uM lenalidomide. The figure is told overall for the three IMiDs.
T4 construct: mature; Same proteins as m3 with 10 uM lenalidomide. 'mature' stands for the printed 'WT full length'; also called CRBN/DDB1 in the presence of lenalidomide
Description: as §1

T1 sequence (Q96SW2 whole entry, chain 1 of 2): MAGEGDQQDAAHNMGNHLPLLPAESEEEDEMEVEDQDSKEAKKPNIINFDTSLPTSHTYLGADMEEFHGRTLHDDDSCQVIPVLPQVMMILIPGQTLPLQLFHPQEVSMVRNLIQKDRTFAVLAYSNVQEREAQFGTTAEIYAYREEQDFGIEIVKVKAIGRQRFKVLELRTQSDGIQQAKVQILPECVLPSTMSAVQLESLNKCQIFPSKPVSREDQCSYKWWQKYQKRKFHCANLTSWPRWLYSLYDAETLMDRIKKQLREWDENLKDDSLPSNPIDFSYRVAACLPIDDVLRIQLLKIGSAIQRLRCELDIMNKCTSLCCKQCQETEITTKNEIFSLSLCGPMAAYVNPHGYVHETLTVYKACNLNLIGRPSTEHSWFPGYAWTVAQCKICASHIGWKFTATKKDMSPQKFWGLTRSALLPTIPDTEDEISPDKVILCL
T1 sequence (Q16531 whole entry, chain 2 of 2): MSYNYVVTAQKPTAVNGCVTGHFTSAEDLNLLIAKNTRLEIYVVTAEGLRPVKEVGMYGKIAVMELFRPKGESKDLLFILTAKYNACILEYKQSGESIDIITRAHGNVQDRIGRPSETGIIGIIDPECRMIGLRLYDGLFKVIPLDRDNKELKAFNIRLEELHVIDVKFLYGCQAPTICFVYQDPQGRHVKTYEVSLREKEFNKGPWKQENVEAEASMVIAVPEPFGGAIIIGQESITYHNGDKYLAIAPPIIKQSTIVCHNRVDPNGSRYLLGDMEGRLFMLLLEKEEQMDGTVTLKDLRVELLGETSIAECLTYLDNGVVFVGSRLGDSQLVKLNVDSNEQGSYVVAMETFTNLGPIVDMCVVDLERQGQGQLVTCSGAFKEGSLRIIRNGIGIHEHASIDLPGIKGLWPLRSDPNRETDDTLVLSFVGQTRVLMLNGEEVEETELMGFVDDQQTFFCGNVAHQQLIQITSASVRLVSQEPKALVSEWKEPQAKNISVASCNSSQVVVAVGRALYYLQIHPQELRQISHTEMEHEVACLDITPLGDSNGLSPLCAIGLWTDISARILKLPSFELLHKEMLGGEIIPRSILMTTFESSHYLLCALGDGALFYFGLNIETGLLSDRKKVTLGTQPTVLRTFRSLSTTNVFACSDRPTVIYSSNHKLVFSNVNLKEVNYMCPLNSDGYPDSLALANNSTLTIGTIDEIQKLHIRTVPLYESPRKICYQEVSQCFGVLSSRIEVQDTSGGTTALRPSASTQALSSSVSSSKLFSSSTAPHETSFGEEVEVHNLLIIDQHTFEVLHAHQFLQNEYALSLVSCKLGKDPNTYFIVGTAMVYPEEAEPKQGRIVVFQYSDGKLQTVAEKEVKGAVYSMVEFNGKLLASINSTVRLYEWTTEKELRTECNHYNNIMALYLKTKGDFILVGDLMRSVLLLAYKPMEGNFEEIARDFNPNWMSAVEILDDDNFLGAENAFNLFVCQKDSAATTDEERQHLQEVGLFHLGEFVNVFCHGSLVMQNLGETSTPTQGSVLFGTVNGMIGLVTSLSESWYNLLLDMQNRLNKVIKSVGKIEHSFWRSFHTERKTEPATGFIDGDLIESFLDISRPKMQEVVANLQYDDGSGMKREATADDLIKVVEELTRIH
T3 sequence (Q96SW2 whole entry, chain 1 of 2): as the sequence (Q96SW2 whole entry, chain 1 of 2) above
T3 sequence (Q16531 2-1140 limits assumed, chain 2 of 2): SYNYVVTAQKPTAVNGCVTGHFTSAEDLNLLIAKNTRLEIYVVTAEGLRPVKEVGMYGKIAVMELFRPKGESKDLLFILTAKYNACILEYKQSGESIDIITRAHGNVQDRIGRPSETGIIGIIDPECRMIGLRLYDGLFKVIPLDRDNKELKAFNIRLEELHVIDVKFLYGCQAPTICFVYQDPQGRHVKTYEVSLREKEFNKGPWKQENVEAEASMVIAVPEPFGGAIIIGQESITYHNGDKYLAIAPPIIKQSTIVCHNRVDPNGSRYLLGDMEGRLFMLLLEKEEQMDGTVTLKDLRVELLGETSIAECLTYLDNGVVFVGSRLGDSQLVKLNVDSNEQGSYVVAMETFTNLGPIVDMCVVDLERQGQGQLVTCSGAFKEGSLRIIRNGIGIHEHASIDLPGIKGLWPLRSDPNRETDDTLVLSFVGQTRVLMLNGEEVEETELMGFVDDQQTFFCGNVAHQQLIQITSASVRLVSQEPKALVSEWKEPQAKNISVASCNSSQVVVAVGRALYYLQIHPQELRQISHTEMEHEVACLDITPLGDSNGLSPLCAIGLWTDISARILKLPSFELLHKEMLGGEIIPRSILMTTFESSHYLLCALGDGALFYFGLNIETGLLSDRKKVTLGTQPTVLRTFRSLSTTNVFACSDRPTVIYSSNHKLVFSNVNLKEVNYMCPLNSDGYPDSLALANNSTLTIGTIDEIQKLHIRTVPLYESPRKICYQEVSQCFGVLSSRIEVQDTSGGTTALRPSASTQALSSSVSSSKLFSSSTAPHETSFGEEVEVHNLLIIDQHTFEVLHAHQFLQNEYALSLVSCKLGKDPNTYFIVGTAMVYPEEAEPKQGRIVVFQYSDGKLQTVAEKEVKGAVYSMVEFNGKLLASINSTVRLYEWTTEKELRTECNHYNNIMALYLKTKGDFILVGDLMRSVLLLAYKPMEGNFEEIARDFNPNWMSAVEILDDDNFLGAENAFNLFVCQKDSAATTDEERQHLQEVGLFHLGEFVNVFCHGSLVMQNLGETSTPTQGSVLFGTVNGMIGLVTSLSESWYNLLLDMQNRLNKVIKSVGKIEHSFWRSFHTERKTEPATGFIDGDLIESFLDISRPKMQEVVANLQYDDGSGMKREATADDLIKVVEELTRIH
T4 sequence (Q96SW2 whole entry, chain 1 of 2): as the sequence (Q96SW2 whole entry, chain 1 of 2) above
T4 sequence (Q16531 2-1140 limits assumed, chain 2 of 2): as the sequence (Q16531 2-1140 limits assumed, chain 2 of 2) above
T2 sequence (Q96SW2 whole entry, chain 1 of 2): as the sequence (Q96SW2 whole entry, chain 1 of 2) above
T2 sequence (Q16531 2-1140 limits assumed, chain 2 of 2): as the sequence (Q16531 2-1140 limits assumed, chain 2 of 2) above

- fold difference of IC50 against iTAG1 [2]: ~10 fold
- fold difference of IC50 against iTAG1 [3]: ~10 fold
- fold difference of IC50 against iTAG1 [4]: ~10 fold
B1: iTAG2 (DCD23mut) (designed binder)
chain: PNVLMVHNESHTGEIPLQCEICGFTCEQAGNLLNHIELHSGEIPFKCHLCNYACRRRDAL
notes: Purified iTAG2 protein
- binding result [1]: no binding (tested: CRBN/DDB1 at 15 uM and iTAG2 at 50 uM)

From patent publication US20260166084A1 (INSTITUTE OF CANCER RESEARCH ROYAL CANCER HOSPITAL, published 2026)
